Measurements published in patent US20130071431A1, “Method for Preserving Polypeptides Using A Sugar and Polyethyleneimine” (Stabilitech Ltd., priority 2008, published 2013).

Legend:
[1] = Beta-galactosidase assay with x-gal (Example 11); format: biochemical; settings: 1M Suc, 100 mM Raf
Description: Excipients mixtures containing β-galactosidase were prepared according to the table below and vortexed. 10 units of β-galactosidase were added to each vial. 200 μl of the vortexed mixture was placed in each appropriately labelled 5 ml glass vials. PEI was obtained from Sigma (P3143, Mn 60,000).
The condenser chamber was −70° C. However there was no shelf control on the freeze-drying unit.
Following freeze-drying, vials were reconstituted in 1 ml PBS. 100 μl of the resulting solution from each vial was added in duplicate (giving a total of 6 readings per excipient type) to each well of a flat bottom 96 well plate. The substrate x-gal was added as according to the manufacturer's instructions. Briefly, a stock solution of 20 mg/ml was made in DMSO and used at a 1 mg/ml working concentration. 100 μl was added to each well and the solution allowed to develop over 10 minutes. Following development, absorbance was measured at 630 nm on a synergy HT microplate. Background from blank wells was then subtracted from all the readings and results assessed using Prism Graphpad.

[2] = HRP activity assay (OPD/H2O2) after freeze-drying and heat-freeze cycles; format: biochemical
Description: Type IV horse radish peroxidase (HRP, Sigma-Aldrich) was diluted to 1 μg/ml in:
The PEI was obtained from Sigma (P3143, Mn 60,000). The PEI concentration was based on Mn. 10×100 μl volumes of each of the above solutions were prepared in 5 ml freeze-drying vials. Five replicates of each solution were freeze-dried from minus 32° C. over a 3 day cycle on a VirTis Advantage laboratory freeze-dryer using the protocol described in Example 6.
One vial from each solution of the liquid and dried samples was placed at 4° C. while the rest were frozen to −20° C. Samples from each of the liquid and dry solutions were subjected to 2, 4, and 6 heat-freeze cycles by removing them from the −20° C. freezer and placing them in an incubator set at 37° C. for 4 hours before replacing them in the freezer for 20 hrs 2, 4 and 6 times. 1 vial of each was retained at −20° C. as a control.
When the cycling was completed all the samples, including the −20° C. and 4° C. maintained non-cycled controls were allowed to equilibrate to room temperature. The freeze-dried samples were then reconstituted with 100 μl/vial of deionised water at room temperature.
Triplicate 10 μl samples were removed from each vial into wells of a flat bottomed ELISA plate (Nunc Maxisorb). To each well was then added 50 ul of a chromogen/substrate solution containing 0.4 mg/ml orthophenylene diamine (OPD) and 0.4 ul/ml 30% hydrogen peroxide (H2O2). Colour was allowed to develop before the reaction was stopped by the addition of 50 μl/well of 1M sulphuric acid (H2SO4). Absorbance was measured at 490 nm on a BioTek Synergy HT spectrophotometer and plotted as optical density (OD).

[3] = tested on: HL60 cells (ERK1/2 phosphorylation); test: HL60 cell stimulation assay, immunoblot of phosphorylated and total ERK1/2; format: cell-based
Description: A lyophilised sample of G-CSF was reconstituted to a concentration of 10 μg/ml. 160 μl of sucrose (1.82M) and 40 μl of raffinose (0.75M) were mixed with 50 μl of PEI (at a concentration of 150 nM based on Mn) to complete the preservation mixture. 50 μl of the reconstituted G-CSF solution was added and mixed well.
100 μl aliquots of the final mixture was distributed into separate vials, and frozen or freeze-dried. Lyophilisation was carried out overnight as described in Example 1. […] Following incubation, the samples were reconstituted in RPMI prior to use.
HL60 cells (shown to be mycoplasma free) were maintained in phenol red containing RPMI 1640 supplemented with 10% foetal bovine serum (FBS) and 2 mM glutamine. Cells were passaged weekly and medium was replenished every 2-3 days.
For stimulation assays HL60 cells were harvested and transferred to serum free medium at a density of 5×10^5 perwell of a 6 well plate. After 24 hours cells were stimulated for 5 minutes with the treatments shown in FIG. 2 (100 ng/ml G-CSF) and as indicated below:
Whole cell extracts were resolved by SDS-PAGE and then transferred to nylon membranes, which were immunoprobed with antibodies against phosphorylated and total ERK1/2.
Cell suspensions were harvested (1000 rpm for 5 minutes) and washed with ice-cold PBS. Cell pellets were then lysed in extraction buffer (1% (v/v) Triton X100, […], pH 7.4, 5 mM EDTA, 50 mM NaCl, 50 mM sodium fluoride 2 mM Na3VO4 and 1 tablet of Complete™ inhibitor mix (Boehringer) per 10 ml of buffer) and homogenised by passage through a 26-gauge needle 6 times. The lysate was incubated on ice for 10 minutes then clarified by centrifugation (14,000 rpm for 10 minutes at 4° C.). The protein concentration was then quantified using the […] (Biorad, Inc.). Equal amounts of protein ([…]) were resolved by SDS-PAGE (10% gels) and then subjected to immunoblot analysis. Antigen-antibody interactions were detected with ECL (Pierce, UK).

[4] = tested on: HL-60 cells (phospho-ERK1/ERK2); test: Cell-based ELISA of phosphorylated ERK1/ERK2 in HL-60 cells
Description: Sucrose solution was prepared by adding 32 g sucrose powder to 32 ml PBS in a 50 ml falcon tube to give a final volume of 52 ml correlating to a final concentration of 61.54%. The solution was gently heated in a microwave to assist initial solvation but thereafter stored at 4° C.
Raffinose solution was prepared by adding 4 g raffinose to 8 ml PBS in a 50 ml falcon tube to give a final volume of 10.2 ml corresponding to a final concentration of 39.2%. The solution was heated in a microwave to allow complete solvation.
To produce the final sugar mix, the sucrose and raffinose solutions described above were mixed in a 4:1 ratio. In practise, 32 ml sucrose solution was mixed with 8 ml raffinose solution. Once composed, sugar mix was stored at 4° C. and suffered no precipitation.
6 g of PEI (50% w/v) was added to 500 ml PBS to make 6 mg/ml then diluted 1 in 10 to make 600 ug/ml. 600 μg/ml was then diluted to make 100 μg/ml solution of PEI. Serial 1 in 10 dilutions were prepared in PBS to a concentration of 0.01 μg/ml. For final concentrations of PEI refer to Table 2 below. Concentrations were calculated based on Mn.
10 μg of 98% purified recombinant human G-CSF was reconstituted in 1 ml of PBS and diluted to 0.2 ng/ml in PBS (1 in 50,000 dilution), with a starting concentration 10 μg/ml. The G-CSF was aliquoted in 15 μl in Eppendorf tubes and stored at −20° C. for further use.
First dilution: 10 μl of G-CSF at 10 μg/ml was added to 990 μl of PBS (1 in 100 dilutions). Second dilution: 10 μl of 1 in 100 dilutions of G-CSF was added to 4.99 ml of PBS (1 in 500 dilutions). For final concentrations of G-CSF refer to Table 2.
Excipients were prepared according to Table 2. The final concentration of G-CSF was 0.2 ng/ml per vial. The excipients were vortexed to mix and 100 μl placed in each appropriately labelled 5 ml glass vial. Samples were freeze dried by the VirTis Advantage freeze dryer for approximately 3 days.
Samples were prepared as 100 μl aliquots. Freeze-dried samples were resuspended in 100 μl of water.
The ELISA assay method described below was followed as general assay procedure of cell base assay's kit (R&D Systems).
HL-60 cells were maintained in phenol red containing RPMI 1640 supplemented with 20% foetal bovine serum (FBS), Glutamine and Penicillin Streptomycin. HL-60 cells were passaged weekly and medium was replenished every 2-3 days.
The HL-60 (passage three) were transferred to a centrifuge tube and spun down at 1300 rpm, for 5 minutes at 4° C. The supernatant was poured off into a T-75 flask. The pellet was resuspended in 10 ml cold media.
200 μl of cell suspension was transferred into an Eppendorf tube by using a 5 ml pipette. 100 μl of cell suspension was added to 100 μl of trypan blue into another Eppendorf tube and mixed. […]

[5] = native (untreated) G-CSF, 100 ng/ml, 5 minutes, serum starved HL60 cells

## β-galactosidase: β-galactosidase enzyme (Sigma)
[1]; 13.3 μM PEI, compared to sucrose/raffinose alone
  β-galactosidase activity following freeze-drying: further enhanced
[1]; no PEI, compared to PBS
  β-galactosidase activity following freeze-drying: high in sucrose/raffinose excipients compared to PBS

## HRP: Type IV horse radish peroxidase (HRP, Sigma-Aldrich)
[2]; 1M Suc/100 mM Raf with or without 16.6 nM PEI versus PBS alone, all treatments and storage conditions
  HRP activity (OD 490 nm): better maintained
[2]; excipient-treated samples, 6 heat/freeze cycles (37° C. 4 hours / −20° C. 20 hrs)
  HRP activity after heat/freeze cycles: still maintained more HRP activity than unchallenged samples in PBS
[2]; sugars, especially in combination with PEI, at the initial freeze-drying stage
  loss of HRP activity: significantly reduces loss of HRP activity

B1: G-CSF: human recombinant G-CSF (Sigma in Example 2; MBL JM-4094-10 in Examples 14 and 16) (protein, UniProt P09919 31-207, looked up)
Granulocyte …: TPLGPASSLPQSFLLKCLEQVRKIQGDGAALQEKLVSECATYKLCHPEELVLLGHSLGIPWAPLSSCPSQALQLAGCLSQLHSGLFLYQGLLQALEGISPELGPTLDTLQLDVADFATTIWQQMEELGMAPALQPTQGAMPAFASAFQRRAGGVLVASHLQSFLEVSYRVLRHLAQP
[3]; G-CSF mixed with excipient and freeze-dried (FIG. 2C)
  potency (ERK1/2 phosphorylation) compared to untreated G-CSF: maintain the potency
[3]; G-CSF mixed with excipient then heat treated 37° C. for 72 hours, not freeze-dried (FIG. 2B)
  activity (ERK1/2 phosphorylation) compared to untreated G-CSF: marked loss of activity
[3]; G-CSF mixed with excipient, freeze-dried and heat treated 37° C. for 72 hours (FIG. 2D)
  protection against heat inactivation (ERK1/2 phosphorylation): protect G-CSF against heat inactivation
[3]; [5]
  ERK1/2 phosphorylation: enhance phosphorylation
  total ERK1/2 levels: without any effect
[4]; 1M Suc, 0.1M Raf with 1.6 μM, 0.16 μM or 0.016 μM PEI, freeze dried, heat treated at 56° C. (15 min, 1 h, 2 h, O/N)
  level of phosphorylated ERK1/ERK2: higher level of phosphorylated ERK1/ERK2
[4]; 1M Suc, 0.1M Raf with 1.6 μM, 0.16 μM or 0.016 μM PEI, freeze dried, 37° C. or 56° C. for 1 week
  protection of G-CSF (ERK 1/2 phosphorylation): protects and stabilises G-CSF
[4]; freeze-dried with high level of PEI, heat treated at 56° C.
  efficacy (phosphorylated ERK1/ERK2): greater efficacy
[4]; sugars with PEI final concentration of 1.6 μM, freeze dried, 37° C. and 56° C. for 1 week
  protection of G-CSF (ERK 1/2 phosphorylation): highest level of protection
